Test results taken from paper PMC4745738.

Biological target: TRAIL-R

inhibition of specific lysis of Nalm6 cells by pDC-activated NK cells (5:1 E:T ratio) with a blocking anti-TRAIL antibody: 50%
inhibition of specific lysis of REH cells by pDC-activated NK cells (5:1 E:T ratio) with a blocking anti-TRAIL antibody: 66%
Substance: TNF-related apoptosis-inducing ligand (TRAIL) (from UniProt P50591 1-281)
